From patent US20260258115A1 (MAPP BIOPHARMACEUTICAL, published 2026)

Columns and labels:
[1] = target: T1, RSV postfusion F (postF), subtype A (respiratory syncytial virus subtype A, UniProt P03420 26-513); assay: BLI, IgG
T1 construct: also called Postfusion subtype A; F deltaFP

[2] = target: T2, RSV prefusion F (preF), subtype B (respiratory syncytial virus subtype B); assay: BLI, IgG
T2 construct: also called Prefusion subtype B

RSV F on RSV-A2 virus = RSV F on RSV-A2 virus (Respiratory Syncytial Virus (RSV-A2), UniProt P03420 26-574); assay: cell-based or functional assay
[3] = target: RSV prefusion F (preF), DS-Cav1 (Respiratory Syncytial Virus, UniProt P03420 26-513); assay: BLI, IgG on anti-human IgG sensor, 100 nM antigen, 1:1 fit
[4] = target: RSV postfusion F (postF), F ΔFP (Respiratory Syncytial Virus, UniProt P03420 26-513); assay: as above

| Binder | Kd [1] | Kd [2] | Neutralization IC50 (RSV subtype A) (RSV F on RSV-A2 virus) | Kd [3] | Kd [4] |
| --- | --- | --- | --- | --- | --- |
| ADI-14343 (antibody, V domains shown, full-length IgG; also called Ab 11) VH: QVQLVQSGAEVKKPGSSVKVSCKASGGTFSSYGVNWVRQAPGQGLEWMGRIIPMFGTSNYAQKFQGRVTITADGSTSTAYMELSSLRSEDTAVYYCARVGSPTTGAIMGVWGQGTTVTVSS VL: DIVLTQTPLSLPVTPGEPASISCRSSQSLLQSNGFNYLDWYLQKPGQSPKLLIYMGSNRASGVPDRFSGSGSGTDFTLIISRVEAEDVGVYYCMQAIESPLTFGGGTKVDIK | 2.94 nM | 38.1 nM | – | – | – |
| ADI-41548 (antibody, V domains shown, also called Ab 820; Antibody Number 820) VH: QVQLQQWGPGLVKPSETLSLTCTVSGASITSHYWSWLRQPAGKGLEWIGRFYPSGTTEKTPSLKSRVTLSVDTSKNHFSLKLTSVTAADTAVYYCARDSYDDIAGSYEYYFADWGQGTLVTVSS VL: EIVLTQSPATLSVSPGERATLSCRASQSVSSNLAWYQQKPGQAPRLLIYDISTRATGVPARFSGSGSGTEFTLTITSLQSEDFTVYYCQQYNNWPPTFGQGTKLEIK | – | – | > 25 µg/mL | 2.56 nM | 1.45 nM |
| ADI-19485 (antibody, V domains shown, full-length IgG) VH: QVQLQESGPGLVKPSQTLSLSCTVSGGSISSTNYYWTWIRQHPGKGLEWIGFIYNRGSTYYNPSLTSRVTISVDTSKNQFSLKLTSVTAADTAVYYCARAPYYYDRNGYYTAFDIWGQGTTVTVSS VL: EIVLTQSPATLSVSPGERATLSCRASQSVSSNLAWYQQKPGQAPRLLIYDASTRATDIPARFSGGGSGTEFTLTISSLQSEDFAVYYCQQYNNWPRTFGLGTKVDIK | 0.251 nM | – | – | – | – |
| ADI-41547 (antibody, V domains shown, also called Ab 819; Antibody Number 819) VH: QVQLVQSGAEVKKPGSSVKVSCKASGGSFSSNTINWVRQAPGQGLEWMGGIIPVFETPNYAQKFQGRVSFTADESTRTAYMELSSLRSEDTAVYFCARQGMSYYDTNGNYYVGWFDTWGQGTLVTVSS VL: EIVLTQSPGTLSLSPGERATLSCRASQSLNNNYLAWYQRKPGQAPRLLIYGAGAFSRATGIPDRFSGSGSGTDFTLTISRLEPEDFALYYCQQYGSSPLTFGQGTRLEIK | – | – | 0.05 µg/mL | 3.19 nM | 1.08 nM |
| ADI-24808 (antibody, V domains shown, full-length IgG) VH: not shown VL: QPVLTQPPSASGSPGQSVTISCTGTSSDVGGYNYVSWYQQHPGKAPKLMIYEVSKRPSGVPDRFSGSKSGNTASLTVSGLQAEDEADYYCSSYAGSNNVVFGGGTKLTVL | 10.8 nM | – | – | – | – |
| ADI-24851 (antibody, V domains shown, full-length IgG) VH: not shown VL: QSVLIQPPSASGSPGQSVTISCTGTSSDVGGYNYVSWYQQHPGKAPKLMIYEVSKRPSGVPDRFSGSKSGNTASLTVSGLQAEDEADYYCSSYAGSNNVVFGGGTKLTVL | 20.9 nM | – | – | – | – |
| ADI-22775 (antibody, V domains shown, full-length IgG) VH: EVQLLESGGGVVQPGRSLRLSCAASGFTFSDYGMHWVRQAPGKGLEWVAVIWYDGSYKYYADSVKGRFTISRDNSKNTLFLQMNSLRAEDTAVYYCARESLQTHDAFDIWGQGTMVTVSS VL: DIQMTQSPSSLSASVGDRVTITCRASQGISNSLAWYQQKPGKAPKLLLYAASRLESGVPSRFSGSGSGTDYTLTINSLQPEDFATYFCQQYYSTLTWTFGQGTKVDIK | 30 nM | – | – | – | – |
| ADI-14362 (antibody, V domains shown, full-length IgG; also called Ab 30) VH: EVQLLESGGGLVQPGGSLRLSCAASGFTFSSYAMSWVRQAPGKGLEWVSGISGSGGSTYYADSVKGRFTISRDNSKNTLYLEMNSLRAEDTAVYYCAKRYYYGSGTYTFDIWGQGTMVTVSS VL: not shown | 15.7 nM | 119 nM | – | – | – |
| ADI-41551 (antibody, V domains shown, also called Ab 823; Antibody Number 823) VH: QVQLQESGGGVVQPGGSLRLSCAASGFTFSRHWMHWVRQVPGKGLVWVSRINSDESTIDYADSVKGRFTISRDNAKNTLYLQMNSLRAEDTAVYYCVRDMVAVPGTTGGDYWGQGTLVTVSS VL: SYELTQPPSVSVSPGQTADITCSGDKLGDKYACWYQQRAGQSPILVLYQDTRRPSGIPERFSGSNSGDTATLTISGTQAMDEADYYCQAWDSSTAWVFGGGTKLTVL | – | – | > 25 µg/mL | 13 nM | 23.8 nM |
| ADI-14359 (antibody, V domains shown, full-length IgG; also called Ab 27) VH: QVQLVQSGPALVKPTQTLTLTCTFSGFSLSTSGMCVSWIRQPPGKALEWLARIDWDDDKYYSTSLKTRLTISKDTSKNQVVLTMTNMDPVDTATYYCARATNYDSSGYYSLYFDYWGQGTLVTVSS VL: not shown | 4.11 nM | 34.6 nM | – | – | – |
| ADI-14348 (antibody, V domains shown, full-length IgG; also called Ab 16) VH: QVQLVESGGGVAQPGGSLRLSCVASGFTFSNYGMHWVRQAPGKGLEWVAFIRSDGSKKYYGDSGKGRFTISRDNSKNTLYLQMNSLRAEDTALYYCARERAGATFAFDIWGQGTTVTVSS VL: QSALTQPRSVSGSPGQSVTISCTGTSSDVGGYNFVSWYQHHPGKAPKLMIYDVTNRPSGVPDRFSGSKSGNTASLTISGLQADDEADYYCCSYAGGFTFYVFGTGTKVTVL | 5.66 nM | 110 nM | – | – | – |
| ADI-41549 (antibody, V domains shown, also called Ab 821; Antibody Number 821) VH: EVQLLESGGGVVQPGGSLRLSCAASGFTFSGYGMHWVRQAPGKGLEWVAFIQYNGSNKYYADSVKGRFTISRDNSKNTLYVQLNSLRAEDTAVYYCATDILVVPAATPLISYYFGMDVWGQGTTVTVSS VL: QSALTQPASVSGSPGQSITISCTGTSSDVGGYNYVSWYQQYPGKAPKLMIYEVTNRPSGVSNRFSGSKSGNTASLTISGLQAEDEADYYCCSYTSTNTRVFGTGTKVTVL | – | – | > 25 µg/mL | 0.408 nM | 1.56 nM |
| ADI-14382 (antibody, V domains shown, full-length IgG; also called Ab 50) VH: EVQLLESGGGVVQPGRSLRLSCAASGFTFSAYGFHWVRQAPGKGLEWVAVIWFDGNNKYYADSMKGRFIISRDNSKNTLYLQMNSLRAEDTAVYYCARDPKETGEFDYWGQGTLVTVSS VL: QSALTQPASVSGSPGQSITISCTGTISDVGRYNYVSWYQQHPGKAPKLMIYDVTNRPSGVSNRFSGSKSGNTASLTISGLQAEDEAVYYCCSYTISSTYVFGTGTKLTVL | 0.846 nM | – | – | – | – |
| ADI-22768 (antibody, V domains shown, full-length IgG) VH: EVQLVESGGGLVQPGGSLRLSCAASGFTFSSYEMNWVRQAPGKGLEWVSYISSSGSTIYYADSVKGRFTISRDNAKNSLYLQMNSLRAEDTAVYYCAKSYIYDSSGYYLYYFDYWGQGTLVTVSS VL: not shown | 3.41 nM | 4.57 nM | – | – | – |
| ADI-22779 (antibody, V domains shown, full-length IgG) VH: QVQLQQWGAGLLKPSETLSLTCAVYGGSFSDYSWTWIRQPPGKGLEWIGEISHTGITNYNPSLKSRVNISVDTSKNQFSLKLSSVTAADTAVYYCARADAYDSSGYYVYYFDYWGQGTLVTVSS VL: DIQVTQSPPSLSASVGDRVTITCRASQTIASYLNWYHQKPGKAPELLIYAASSLQSGVPSRFSGSGSGTAFTLTISSLQPEDFATYYCQQSYSAPPSFGQGTKVEIK | 6.2 nM | – | – | – | – |
| ADI-14373 (antibody, V domains shown, full-length IgG; also called Ab 41) VH: QVQLQQWGAGLLKPSETLSLTCAVYGGSFSGSYWSWIRQPPGKGLEWIGEINHSGSTSYNPSLKSRVTISVDTSKKQFSLKLSSMTAADTAVYYCAGGFYYDSSGSYAPHPTFDYWGQGTLVTVSS VL: not shown | 1.06 nM | 15.9 nM | – | – | – |
| ADI-24818 (antibody, V domains shown, full-length IgG; also called Ab 380) VH: not shown VL: QPVLTQPASVSGSPGQSITISCTGTSSDVGGYNYVSWYQQHPGKAPKLMIYDVSNRPSGVSNRFSGSKSGNTASLTISGLQAEDEADYYCSSYTSSSTLVFGGGTQLTVL | 6.47 nM | – | – | – | – |
